The results in this text go back to patent US20110009311A1 (US Dept. of Health and Human Services, published 2011).

Where no end group is shown, it is not given here.

The target of test [1] is T1, α3β1 integrin (endogenous on human cells: MDA-MB-435 breast carcinoma, HUVEC, HDME, OH-1 SCLC) (human, UniProt P26006 33-1051; P05556 21-798). Put plainly: cell-based or functional assay.
The target of test [2] is T1, α3β1 integrin (endogenous on human …). In words: soluble peptide, inhibition of MDA-MB-435 cell adhesion to immobilized peptide 678.
Test [3] has the same target. In words: cell-based or functional assay. This is another data set of the same source.
Test [4] shares this target. Put plainly: cell-based or functional assay. The source holds these as a separate data set.
Test [5] has the same target. Put plainly: direct MDA-MB-435 cell adhesion to adsorbed peptide (FIG. 8).
The target is the same in test [6]. Put plainly: MDA-MB-435 cell adhesion and inhibition of adhesion (FIG. 3A and results not shown).

T1 sequence (P26006 33-1051, chain 1 of 2): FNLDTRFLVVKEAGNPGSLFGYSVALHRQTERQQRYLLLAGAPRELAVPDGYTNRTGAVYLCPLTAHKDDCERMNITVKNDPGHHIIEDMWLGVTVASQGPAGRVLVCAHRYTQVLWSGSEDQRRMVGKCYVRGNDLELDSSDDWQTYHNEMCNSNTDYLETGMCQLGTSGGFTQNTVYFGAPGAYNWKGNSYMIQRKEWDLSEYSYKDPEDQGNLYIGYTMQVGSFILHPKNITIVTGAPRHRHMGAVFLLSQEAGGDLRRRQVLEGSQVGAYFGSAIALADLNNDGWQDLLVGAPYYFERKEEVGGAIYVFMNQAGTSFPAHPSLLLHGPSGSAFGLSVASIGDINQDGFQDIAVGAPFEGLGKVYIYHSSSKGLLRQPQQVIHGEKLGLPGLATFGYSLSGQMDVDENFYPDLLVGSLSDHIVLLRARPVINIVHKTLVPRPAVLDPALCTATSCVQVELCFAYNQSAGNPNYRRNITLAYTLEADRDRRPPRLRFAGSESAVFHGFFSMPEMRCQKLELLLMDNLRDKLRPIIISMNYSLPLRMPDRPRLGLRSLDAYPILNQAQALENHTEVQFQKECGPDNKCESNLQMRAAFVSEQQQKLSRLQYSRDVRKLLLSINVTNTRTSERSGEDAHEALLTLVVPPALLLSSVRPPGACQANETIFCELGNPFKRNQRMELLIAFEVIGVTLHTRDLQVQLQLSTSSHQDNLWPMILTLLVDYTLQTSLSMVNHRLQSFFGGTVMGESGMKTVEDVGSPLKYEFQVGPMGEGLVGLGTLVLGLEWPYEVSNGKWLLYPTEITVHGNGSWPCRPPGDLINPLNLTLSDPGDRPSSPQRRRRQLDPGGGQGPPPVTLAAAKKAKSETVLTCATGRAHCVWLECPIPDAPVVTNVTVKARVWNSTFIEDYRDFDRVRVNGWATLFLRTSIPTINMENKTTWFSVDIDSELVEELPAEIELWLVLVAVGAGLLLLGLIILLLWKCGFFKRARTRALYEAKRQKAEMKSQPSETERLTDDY
T1 sequence (P05556 21-798, chain 2 of 2): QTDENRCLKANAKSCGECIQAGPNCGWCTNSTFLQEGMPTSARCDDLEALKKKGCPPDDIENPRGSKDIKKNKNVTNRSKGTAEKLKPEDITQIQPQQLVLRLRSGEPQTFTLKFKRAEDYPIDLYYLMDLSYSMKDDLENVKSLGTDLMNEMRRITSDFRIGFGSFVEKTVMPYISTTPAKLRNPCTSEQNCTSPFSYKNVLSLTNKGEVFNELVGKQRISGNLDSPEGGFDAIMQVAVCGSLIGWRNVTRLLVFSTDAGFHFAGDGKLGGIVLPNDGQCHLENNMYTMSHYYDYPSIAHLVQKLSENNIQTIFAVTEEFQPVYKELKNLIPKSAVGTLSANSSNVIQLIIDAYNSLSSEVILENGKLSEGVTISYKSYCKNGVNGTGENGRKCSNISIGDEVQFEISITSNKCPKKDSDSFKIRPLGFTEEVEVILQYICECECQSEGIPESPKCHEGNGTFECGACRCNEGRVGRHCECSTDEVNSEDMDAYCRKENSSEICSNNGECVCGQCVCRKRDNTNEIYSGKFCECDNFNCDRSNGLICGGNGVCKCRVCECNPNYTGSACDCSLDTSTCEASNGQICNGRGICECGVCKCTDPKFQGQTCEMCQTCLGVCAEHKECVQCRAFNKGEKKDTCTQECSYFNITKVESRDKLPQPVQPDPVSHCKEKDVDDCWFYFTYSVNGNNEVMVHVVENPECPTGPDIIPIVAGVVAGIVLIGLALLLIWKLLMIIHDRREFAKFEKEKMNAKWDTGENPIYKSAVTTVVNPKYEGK

B1: peptide 683 (peptide)
peptide: QGVLQNVR
With B1, the “IC50, inhibition of MDA-MB-435 cell adhesion to immobilized peptide 678 (microscopic adhesion assay)” value (“IC50, inhibition … (microscopic adhesion assay)” below) in test [1] is above 300 µM. In addition, the binding result in test [2] is on record as “no binding (tested: >300 µM)”.

B2: peptide 697 (peptide)
peptide: AQGVLQNVRFVF
On to B2, for which, in test [3], the “IC50 (µM), inhibition of MDA-MB-435 cell adhesion to immobilized peptide 678” value (“IC50 (µM), inhibition” for short) amounted to 5 µM. Further, the “IC50, inhibition … (microscopic adhesion assay)” value in test [1] came to 5 µM.

B3: thrombospondin-1 (TSP1), calcium replete, purified from human platelets (ligand)
chain: not shown
For the molecule B3, the “IC50, inhibition of OH-1 SCLC cell proliferation by soluble protein” value in test [4] was found to be 0.04 µM.

B4: murine laminin-1 peptide GD6 (peptide)
peptide: KQNCLSSRASFRGCVRNLRLSR
For B4, in test [4], the “IC50, inhibition of MDA-MB-435 cell adhesion to peptide 678, GD6 or TSP1 by the soluble laminin peptide (data not shown)” value was 700 µM.

B5: peptide 695 (peptide)
peptide: FQGVAQNVRFVF
As to B5, the “IC50 (µM), inhibition” value in test [3] worked out at 5 µM. The “IC50, inhibition … (microscopic adhesion assay)” value in test [1] came out at 5 µM.

B6: peptide 688 (peptide)
peptide: VLQNVRFVF
On to B6, for which the “IC50, inhibition … (microscopic adhesion assay)” value in test [1] is above 100 µM.

B7: peptide 704 (peptide)
peptide: Ac-QGVLQNVRF
Regarding B7, in test [1], the “IC50, inhibition of MDA-MB-435 cell adhesion to immobilized peptide 678 (hexosaminidase method)” value (“IC50, inhibition … (hexosaminidase method)” below) is around 100 µM and the “IC50, inhibition … (microscopic adhesion assay)” value came out at 15 µM.

B8: peptide 685 (peptide)
peptide: QGVLQNVRFVF
For B8, in test [1], the “IC50, inhibition … (microscopic adhesion assay)” value came to 24 µM.

B9: peptide 694 (peptide)
peptide: FQGVLQNVHFVF
Turning to B9, the “IC50 (µM), inhibition” value in test [3] worked out at 54 µM. Besides, the “IC50, inhibition … (microscopic adhesion assay)” value in test [1] amounted to 54 µM.

B10: peptide 696 (peptide)
peptide: FAGVLQNVRFVF
For B10, in test [3], the “IC50 (µM), inhibition” value was 1.8 µM. In test [1], the “IC50, inhibition … (hexosaminidase method)” value was 12 µM and the “IC50, inhibition … (microscopic adhesion assay)” value turned out to be 1.8 µM.

B11: peptide 693 (peptide)
peptide: FQGVLQNVRFVA
As to B11, the “IC50 (µM), inhibition” value in test [3] was determined as 27 µM. Also, the “IC50, inhibition … (microscopic adhesion assay)” value in test [1] worked out at 27 µM.

B12: TSP1 peptide 678 (peptide)
peptide: FQGVLQNVRFVF
Consider B12, for which, in test [3], the “IC50 (µM), inhibition” value is 3.5 µM. For the same molecule, in test [1], the “IC50, inhibition … (hexosaminidase method)” value turned out to be 15 µM and the “IC50, inhibition … (microscopic adhesion assay)” value is 3.5 µM. Also, the “IC50, inhibition of OH-1 SCLC cell proliferation by soluble peptide” value in test [4] amounted to 6 µM.

B13: peptide 690 (peptide)
peptide: FQGVLQNVAFVF
notes: also called control peptide 690
In the case of B13, the “IC50 (µM), inhibition” value in test [3] is above 300 µM. Besides, the “IC50, inhibition … (microscopic adhesion assay)” value in test [1] is above 300 µM. The binding result in test [5] is recorded as “no binding (tested: adsorbed at 10 µM)”.

B14: peptide 692 (peptide)
peptide: FQGVLQNVRAVF
Take B14: the “IC50 (µM), inhibition” value in test [3] came out at 18 µM. In test [1], the “IC50, inhibition … (microscopic adhesion assay)” value was 18 µM.

B15: TSP1 peptide 701 (peptide)
peptide: TPGQVRTLWHDP
notes: also called (part of C6)
On to B15, for which the “IC50, inhibition … (microscopic adhesion assay)” value in test [1] was above 300 µM. For the same molecule, the binding result in test [6] is listed as “no binding”.

B16: peptide 682 (peptide)
peptide: FQGVLQNVRF
B16: in test [1], the “IC50, inhibition … (microscopic adhesion assay)” value was 6 µM.

B17: peptide 719 (peptide)
peptide: FQGVLQNLRFVF
As to B17, the “IC50, inhibition … (hexosaminidase method)” value in test [1] came to 16 µM.

B18: peptide 702 (peptide)
peptide: FQGVLQNVKFVF
B18: the “IC50 (µM), inhibition” value in test [3] was 6 µM. In test [1], the “IC50, inhibition … (hexosaminidase method)” value worked out at 25 µM and the “IC50, inhibition … (microscopic adhesion assay)” value stood at 6 µM.

B19: peptide 687 (peptide)
peptide: FQGVLANVRFVF
For B19, the “IC50 (µM), inhibition” value in test [3] is 3 µM. Also, the “IC50, inhibition … (microscopic adhesion assay)” value in test [1] was determined as 3 µM.

B20: peptide 698 (peptide)
peptide: FQGVLNNVRFVF
Turning to B20, the “IC50, inhibition … (microscopic adhesion assay)” value in test [1] was found to be 3 µM.

B21: laminin peptide 679 (peptide)
peptide: FRGCVRNLRLSR
Take B21: the “IC50, inhibition … (hexosaminidase method)” value in test [1] turned out to be 700 µM.

B22: MBP-invasin fusion protein (ligand)
chain: AVIGDGAPANGKTAITVEFTVADFEGKPLAGQEVVITTNNGALPNKITEKTDANGVARIALTNTTDGVTVVTAEVEGQRQSVDTHFVKGTIAADKSTLAAVPTSIIADGLMASTITLELKDTYGDPQAGANVAFDTTLGNMGVITDHNDGTYSAPLTSTTLGVATVTVKVDGAAFSVPSVTVNFTADPIPDAGRSSFTVSTPDILADGTMSSTLSFVPVDKNGHFISGMQGLSFTQNGVPVSISPITEQPDSYTATVVGNTAGDVTITPQVDTLILSTLQKKISLFPVPTLTGILVNGQNFATDKGFPKTIFKNATFQLQMDNDVANNTQYEWSSSFTPNVSVNDQGQVTITYQTYSEVAVTAKSKKFPSYSVSYRFYPNRWIYDGGTSLVSSLEASRQCQGSDMSAVLESSRATNGTRAPDGTLWGEWGSLTAYSSDWQSGEYWVKKTSTDFETMNMDTGALVQGPAYLAFPLCALAI
For the molecule B22, the “IC50, inhibition of OH-1 SCLC cell proliferation by soluble protein” value in test [4] was 0.08 µM.

B23: peptide 717 (peptide)
peptide: FQGVLQQVRFVF
Consider B23, for which, in test [1], the “IC50, inhibition … (hexosaminidase method)” value worked out at 30 µM.

B24: peptide 718 (peptide)
peptide: FQGVLQDVRFVF
As for B24, the “IC50, inhibition … (hexosaminidase method)” value in test [1] was 12 µM.

B25: peptide 705 (peptide)
peptide: FQGVLQSVRFVF
Take B25: the “IC50, inhibition … (hexosaminidase method)” value in test [1] was determined as 15 µM.

B26: peptide 684 (peptide)
peptide: LQNVRFVF
In the case of B26, the “IC50, inhibition … (microscopic adhesion assay)” value in test [1] was found to be 300 µM.

B27: peptide 681 (peptide)
peptide: Ac-LQNVRF-NH2
With B27, the “IC50, inhibition … (microscopic adhesion assay)” value in test [1] worked out at 500 µM.
